Data reported in the supplement of paper PMC9112550, “Optimization of the antimicrobial peptide Bac7 by deep mutational scanning” (BMC Biology, 2022).

These sequences were tested on Escherichia coli TOP10 (assay: shrunken log2 fold change of peptide-encoding DNA abundance (4.5 h post-induction vs induction); higher = less antimicrobial activity (less host growth inhibition)). Conditions: time post-induction: 4.5 h; library: site-saturation at positions 5, 18, 19, 20.
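Also: peptides expressed intracellularly from a pBAD plasmid library in pooled LB shake-flask culture, induced with 0.3% L-arabinose, DNA abundance read by NGS, three biological replicates, DESeq2 with apeglm shrinkage.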

| Sequence | shrunken log2 fold change |
| --- | --- |
| RRIRTRPPRLPRPRPRPVESPRP | 0.141 |
| RRIRNRPPRLPRPRPRPAHLPRP | 0.256 |
| RRIRFRPPRLPRPRPRPCQYPRP | -0.53 |
| RRIRDRPPRLPRPRPRPLICPRP | 0.347 |
| RRIRIRPPRLPRPRPRPALAPRP | 0.202 |
| RRIRMRPPRLPRPRPRPFMEPRP | -0.096 |
| RRIRMRPPRLPRPRPRPMKKPRP | -0.00637 |
| RRIRARPPRLPRPRPRPMCSPRP | 0.334 |
| RRIRWRPPRLPRPRPRPYMHPRP | -0.48 |
| RRIRERPPRLPRPRPRPRKWPRP | 0.316 |
| RRIRTRPPRLPRPRPRPECNPRP | 0.0232 |
| RRIRRRPPRLPRPRPRPLYAPRP | 0.0633 |
| RRIRLRPPRLPRPRPRPAAYPRP | -0.15 |
| RRIRARPPRLPRPRPRPKGMPRP | 0.4 |
| RRIRCRPPRLPRPRPRPSAGPRP | 0.194 |
| RRIRARPPRLPRPRPRPRMYPRP | 0.0922 |
| RRIRARPPRLPRPRPRPSQLPRP | 0.262 |
| RRIRHRPPRLPRPRPRPRIDPRP | -0.511 |
| RRIRWRPPRLPRPRPRPMMNPRP | -0.238 |
| RRIRPRPPRLPRPRPRPAVCPRP | 0.245 |
| RRIRARPPRLPRPRPRPEREPRP | 1.05 |
| RRIRHRPPRLPRPRPRPITSPRP | -0.401 |
| RRIRNRPPRLPRPRPRPVHAPRP | 0.0862 |
| RRIRDRPPRLPRPRPRPWCVPRP | 0.083 |
| RRIRQRPPRLPRPRPRPKEDPRP | -0.0372 |

| Sequence | shrunken log2 fold change |
| --- | --- |
| RRIRQRPPRLPRPRPRPNSAPRP | -0.173 |
| RRIRLRPPRLPRPRPRPKASPRP | -0.231 |
| RRIRARPPRLPRPRPRPRRRPRP | 0.888 |
| RRIRQRPPRLPRPRPRPEQVPRP | 0.107 |
| RRIRNRPPRLPRPRPRPPVNPRP | -0.249 |
| RRIRERPPRLPRPRPRPVDMPRP | -0.107 |
| RRIRHRPPRLPRPRPRPEAVPRP | -0.00144 |
| RRIRKRPPRLPRPRPRPTKWPRP | 0.172 |
| RRIRQRPPRLPRPRPRPYKYPRP | -1.49 |
| RRIRERPPRLPRPRPRPNQVPRP | -0.0305 |
| RRIRERPPRLPRPRPRPVTYPRP | -0.17 |
| RRIRMRPPRLPRPRPRPCNCPRP | -0.0499 |
| RRIRHRPPRLPRPRPRPDNGPRP | -0.00804 |
| RRIRFRPPRLPRPRPRPWTPPRP | -0.26 |
| RRIRHRPPRLPRPRPRPIENPRP | -0.143 |
| RRIRFRPPRLPRPRPRPNIRPRP | -0.184 |
| RRIRWRPPRLPRPRPRPDRPPRP | -0.0134 |
| RRIRYRPPRLPRPRPRPLNYPRP | -0.0845 |
| RRIRYRPPRLPRPRPRPWPDPRP | -0.137 |
| RRIRTRPPRLPRPRPRPHSAPRP | 0.205 |
| RRIRWRPPRLPRPRPRPNHSPRP | -0.409 |
| RRIRKRPPRLPRPRPRPGYCPRP | -0.275 |
| RRIRRRPPRLPRPRPRPDPHPRP | 0.296 |
| RRIRMRPPRLPRPRPRPMKPPRP | -0.00107 |
| RRIRFRPPRLPRPRPRPTKLPRP | -0.494 |

| Sequence | shrunken log2 fold change |
| --- | --- |
| RRIRQRPPRLPRPRPRPVICPRP | -0.0945 |
| RRIRQRPPRLPRPRPRPFAIPRP | 0.00479 |
| RRIRTRPPRLPRPRPRPNRIPRP | -0.294 |
| RRIRSRPPRLPRPRPRPFYKPRP | -0.426 |
| RRIRARPPRLPRPRPRPYMFPRP | -0.262 |
| RRIRKRPPRLPRPRPRPCCMPRP | 0.103 |
| RRIRDRPPRLPRPRPRPTFGPRP | 0.228 |
| RRIRSRPPRLPRPRPRPQKLPRP | 0.0126 |
| RRIRARPPRLPRPRPRPFDVPRP | -0.0821 |
| RRIRARPPRLPRPRPRPECPPRP | 0.683 |
| RRIRIRPPRLPRPRPRPTLCPRP | 0.0503 |
| RRIRVRPPRLPRPRPRPHFIPRP | -0.304 |
| RRIRVRPPRLPRPRPRPWQLPRP | -0.421 |
| RRIRVRPPRLPRPRPRPWPNPRP | 0.179 |
| RRIRTRPPRLPRPRPRPTTWPRP | -0.0444 |
| RRIRARPPRLPRPRPRPVKDPRP | 0.284 |
| RRIRRRPPRLPRPRPRPHHCPRP | -0.0737 |
| RRIRSRPPRLPRPRPRPTIDPRP | -0.00141 |
| RRIRSRPPRLPRPRPRPLQCPRP | 0.116 |
| RRIRNRPPRLPRPRPRPIHEPRP | -0.00804 |
| RRIRRRPPRLPRPRPRPCEDPRP | 0.0155 |
| RRIRARPPRLPRPRPRPYGCPRP | -0.55 |
| RRIRPRPPRLPRPRPRPDVGPRP | 0.181 |
| RRIRVRPPRLPRPRPRPADYPRP | 0.0436 |
| RRIRHRPPRLPRPRPRPFIIPRP | -0.00662 |

| Sequence | shrunken log2 fold change |
| --- | --- |
| RRIRMRPPRLPRPRPRPKRVPRP | 0.0291 |
| RRIRERPPRLPRPRPRPIKAPRP | -0.00435 |
| RRIRCRPPRLPRPRPRPLGNPRP | -0.229 |
| RRIRNRPPRLPRPRPRPPHWPRP | 0.406 |
| RRIRIRPPRLPRPRPRPVVRPRP | 0.11 |
| RRIRPRPPRLPRPRPRPTDMPRP | 0.157 |
| RRIRQRPPRLPRPRPRPRAGPRP | 0.389 |
| RRIRFRPPRLPRPRPRPWLHPRP | 0.0608 |
| RRIRRRPPRLPRPRPRPWDHPRP | 0.0105 |
| RRIRVRPPRLPRPRPRPRTVPRP | 0.16 |
| RRIRNRPPRLPRPRPRPYSYPRP | 0.000362 |
| RRIRNRPPRLPRPRPRPVDVPRP | -0.122 |
| RRIRLRPPRLPRPRPRPAIFPRP | -0.391 |
| RRIRNRPPRLPRPRPRPDLPPRP | -0.221 |
| RRIRIRPPRLPRPRPRPKQAPRP | 0.0872 |
| RRIRMRPPRLPRPRPRPRDHPRP | 0.324 |
| RRIRWRPPRLPRPRPRPTGKPRP | 0.294 |
| RRIRGRPPRLPRPRPRPYVNPRP | 0.0862 |
| RRIRIRPPRLPRPRPRPDACPRP | 0.183 |
| RRIRDRPPRLPRPRPRPKLRPRP | -0.0184 |
| RRIRERPPRLPRPRPRPHFQPRP | 0.0177 |
| RRIRYRPPRLPRPRPRPIFFPRP | -0.353 |
| RRIRCRPPRLPRPRPRPSCGPRP | -0.103 |
| RRIRPRPPRLPRPRPRPFNFPRP | -0.155 |
| RRIRARPPRLPRPRPRPWTTPRP | 0.0452 |

| Sequence | shrunken log2 fold change |
| --- | --- |
| RRIRWRPPRLPRPRPRPSRIPRP | -0.338 |
| RRIRSRPPRLPRPRPRPGMLPRP | -0.0372 |
| RRIRQRPPRLPRPRPRPTQAPRP | 0.186 |
| RRIRGRPPRLPRPRPRPLIKPRP | 0.469 |
| RRIRIRPPRLPRPRPRPGCVPRP | -0.00757 |
| RRIRIRPPRLPRPRPRPGFDPRP | 0.027 |
| RRIRERPPRLPRPRPRPWHDPRP | -0.251 |
| RRIRRRPPRLPRPRPRPWGNPRP | 0.352 |
| RRIRCRPPRLPRPRPRPKSKPRP | -0.338 |
| RRIRKRPPRLPRPRPRPLKQPRP | 0.146 |
| RRIRLRPPRLPRPRPRPGAWPRP | 0.0481 |
| RRIRKRPPRLPRPRPRPMCCPRP | -0.178 |
| RRIRWRPPRLPRPRPRPGYQPRP | -0.00973 |
| RRIRCRPPRLPRPRPRPITAPRP | -3.59e-05 |
| RRIRWRPPRLPRPRPRPFICPRP | -0.309 |
| RRIRPRPPRLPRPRPRPYTKPRP | -0.0218 |
| RRIRHRPPRLPRPRPRPGAFPRP | 0.175 |
| RRIRHRPPRLPRPRPRPWHIPRP | -0.864 |
| RRIRWRPPRLPRPRPRPHPYPRP | -0.195 |
| RRIRWRPPRLPRPRPRPAWCPRP | 0.469 |
| RRIRFRPPRLPRPRPRPGYGPRP | 0.019 |
| RRIRERPPRLPRPRPRPMGFPRP | 0.0499 |
| RRIRYRPPRLPRPRPRPLINPRP | -0.279 |
| RRIRQRPPRLPRPRPRPHRYPRP | -0.812 |
| RRIRFRPPRLPRPRPRPPGTPRP | 0.316 |

| Sequence | shrunken log2 fold change |
| --- | --- |
| RRIRARPPRLPRPRPRPEHPPRP | 0.652 |
| RRIRPRPPRLPRPRPRPGEMPRP | 0.294 |
| RRIRQRPPRLPRPRPRPTSPPRP | 0.218 |
| RRIRDRPPRLPRPRPRPYSHPRP | -0.471 |
| RRIRDRPPRLPRPRPRPQRDPRP | 0.0917 |
| RRIRERPPRLPRPRPRPWLKPRP | -0.24 |
| RRIRLRPPRLPRPRPRPDVYPRP | -0.0227 |
| RRIRRRPPRLPRPRPRPIPPPRP | 0.452 |
| RRIRYRPPRLPRPRPRPESQPRP | -0.0411 |
| RRIRHRPPRLPRPRPRPRRLPRP | -0.0808 |
| RRIRPRPPRLPRPRPRPTVPPRP | -0.0252 |
| RRIRFRPPRLPRPRPRPCLSPRP | -0.0617 |
| RRIRMRPPRLPRPRPRPIKEPRP | -0.00194 |
| RRIRFRPPRLPRPRPRPGGLPRP | 0.217 |
| RRIRNRPPRLPRPRPRPLYSPRP | -0.761 |
| RRIRSRPPRLPRPRPRPCRHPRP | 0.063 |
| RRIRPRPPRLPRPRPRPPQNPRP | 0.361 |
| RRIRKRPPRLPRPRPRPYNFPRP | -0.384 |
| RRIRERPPRLPRPRPRPIWDPRP | -0.254 |
| RRIRGRPPRLPRPRPRPSKAPRP | 0.165 |
| RRIRDRPPRLPRPRPRPFIEPRP | 0.0849 |
| RRIRVRPPRLPRPRPRPFFIPRP | -0.265 |
| RRIRYRPPRLPRPRPRPMYQPRP | -0.124 |
| RRIRRRPPRLPRPRPRPHCNPRP | -0.135 |
| RRIRDRPPRLPRPRPRPNCWPRP | -0.113 |
